# Results taken from publication doi:10.1101/2025.10.03.680225.
# Assays:
# [1] = target: GAPDH-wt (UniProt P04406 1-335); assay: fluorescence anisotropy
# [2] = target: GAPDH-K215E (UniProt P04406 1-335, K215E); assay: fluorescence anisotropy
# GAPDH-K215E, sequence (P04406 whole entry K215E): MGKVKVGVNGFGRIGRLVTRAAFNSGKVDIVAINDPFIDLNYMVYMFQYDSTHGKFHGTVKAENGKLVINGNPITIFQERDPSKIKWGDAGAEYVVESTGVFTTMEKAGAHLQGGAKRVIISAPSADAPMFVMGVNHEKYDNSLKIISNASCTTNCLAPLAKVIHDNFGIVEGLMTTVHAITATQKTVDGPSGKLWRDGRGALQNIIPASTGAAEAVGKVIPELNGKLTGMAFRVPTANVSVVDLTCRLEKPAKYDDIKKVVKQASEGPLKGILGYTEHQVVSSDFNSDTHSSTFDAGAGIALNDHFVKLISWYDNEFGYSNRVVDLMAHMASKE
# GAPDH-wt, sequence (P04406 whole entry): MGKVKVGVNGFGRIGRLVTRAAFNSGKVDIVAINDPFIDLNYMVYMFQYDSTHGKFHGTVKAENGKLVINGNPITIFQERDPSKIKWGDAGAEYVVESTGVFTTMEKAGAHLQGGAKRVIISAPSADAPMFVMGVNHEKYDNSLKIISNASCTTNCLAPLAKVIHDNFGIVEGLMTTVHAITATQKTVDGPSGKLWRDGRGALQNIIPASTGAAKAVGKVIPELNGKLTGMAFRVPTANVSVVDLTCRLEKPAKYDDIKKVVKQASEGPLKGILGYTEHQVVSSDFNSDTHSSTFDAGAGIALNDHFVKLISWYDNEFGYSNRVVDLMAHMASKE
binder,measurement,setting,value
AAAAAAAAAAAAAAAAAAAA (ssRNA) [20A-RNA],Kd,[1],132 ± 10 nM
same,Kd,[2],3100 ± 217 nM
